T1: human CD147 antigen (human, UniProt P35613-2 22-205, limits assumed)
T1 sequence (looked up): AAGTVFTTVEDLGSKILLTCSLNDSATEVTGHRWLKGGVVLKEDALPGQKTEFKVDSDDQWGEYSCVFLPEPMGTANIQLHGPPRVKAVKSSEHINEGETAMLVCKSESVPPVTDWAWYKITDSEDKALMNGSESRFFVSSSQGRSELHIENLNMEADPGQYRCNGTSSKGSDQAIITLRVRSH


Legend:
[1] = molecular target: T1, human CD147 antigen; assay: SPR (ProteOn XPR36), antibody immobilised on a GLC chip, human CD147 antigen injected at 0.375-6 nM, 25 C
Method: (§1) The affinity (KD) for the binding of human CD147 antigen to selected antibodies was measured by Surface plasmon resonance analysis on a multi-SPR array system (ProteOn XPR36™, Bio-Rad). Data analysis was performed using ProteOn Manager Software (Bio-Rad). Briefly, the running buffer PBST (0.005% Tween-20 in PBS) was used continuously throughout the entire experiment at 25° C. A ProteOn GLC sensor chips (Bio-Rad) was activated for 6 min using a mixture of 0.2M EDC and 5 mM sulfo-NHS at a flow rate of 20 μl/min, followed by diluting 260 μl of 10 μg/mL each antibody in 10 mM acetate buffer at pH 4.5. The surface of the sensor chip was then deactivated with 150 μl of IM Ethanolamine Hydrochloride (pH 8.5). The sensor surface was regenerated through a wash (about 3 min) with HBS-EP buffer until the baseline was restored. A reference cell without antibodies was prepared by a similar procedure. 5 different concentrations of human CD147 antigen (0.375, 0.75, 1.5, 3, and 6 nM) were injected in channels 1 to 5, respectively, at flow rate of 50 μl/min, 3 min. A reference channel was prepared in the same manner without injection of CD147 antigen. The SPR binding responses were collected and analyzed using the ProteOn data manager program.
Two sets of experiments were performed, in the first set of experiments, the human CD147 binding affinity of HAb18 and Metuzumab were compared (data shown in FIG. 3A), in the second set of experiments the human CD147 binding affinity of cHAb18 and Metuzumab were compared (data shown in FIG. 3B).

[2] = molecular target: T1, human CD147 antigen; assay: SPR, ProteOn XPR36, antibody amine-coupled to GLC chip, human CD147 0.375-6 nM as analyte, 25 C; first set of experiments (FIG. 3A)
Method: as §1, with “program. […]” for “program.”

[3] = molecular target: T1, human CD147 antigen; assay: SPR, ProteOn XPR36, antibody amine-coupled to GLC chip, human CD147 0.375-6 nM as analyte, 25 C; second set of experiments (FIG. 3B)
Method: as §1, with “program. […]” for “program.”

Binder | Kd [1] [nM] | koff [1] [s⁻¹] | kon [1] [M⁻¹ s⁻¹] | Kd [2] [nM] | Kd [3] [nM]
Metuzumab (antibody, human IgG1, kappa, V domains shown, N-linked Mannose-5 oligosaccharide in the Fc region, no fucose or xylose residue detected (site not numbered in the filing), Human-mouse chimeric IgG1 made in acetyl-glucosamine transferase deficient CHO K1 MAGE1.5 cells; only the glycoform differs; Residues 1-16 are left out on that basis; also called HcHAb18; glycosylation modified chimeric antibody Metuzumab) VH: EVKLEESGGGLVQPGGSMKLSCVASGFTFSDAWMDWVRQSPEKGLEWVAEIRSKANNHAPYYTESVKGRFTISRDDSKSIIYLQMNNLRAEDTGIYYCTRDSTATHWGQGTLVTVSA VL: SIVMTQTPTFLVVSAGDRVTITCKASQSVINDVAWYQQKPGQSPKLLIFYASNRNTGVPDRFTGSGYGTDFTFTISTVQAEDLAVYFCQQDYSPPFTFGSGTKLEIKR | 0.362 | 0.000417 | 1.15e+06 | 0.321 | 0.429
HAb18 (antibody, V domains shown, Murine monoclonal antibody from hybridoma CGMCC NO; 0426; The variable domains are tied to HAb18 through cHAb18, whose variable domains are 'derived from HAb18'; also called original mouse antibody HAb18; anti-CD147 murine monoclonal antibody HAb18) VH: EVKLEESGGGLVQPGGSMKLSCVASGFTFSDAWMDWVRQSPEKGLEWVAEIRSKANNHAPYYTESVKGRFTISRDDSKSIIYLQMNNLRAEDTGIYYCTRDSTATHWGQGT VL: SIVMTQTPTFLVVSAGDRVTITCKASQSVINDVAWYQQKPGQSPKLLIFYASNRNTGVPDRFTGSGYGTDFTFTISTVQAEDLAVYFCQQDYSPPFTFGSGTKLEIKR | 0.321 | 0.000351 | 1.09e+06 | 0.362 | 
cHAb18 (antibody, human IgG1, kappa, V domains shown, N-linked fucosylated oligosaccharides, G0F, G1F and G1F' glycoforms (site not numbered in the filing), Human-mouse chimeric IgG1 made in CHO K1 cells; also called chimeric antibody cHAb18; cHAb18 mAb) VH: EVKLEESGGGLVQPGGSMKLSCVASGFTFSDAWMDWVRQSPEKGLEWVAEIRSKANNHAPYYTESVKGRFTISRDDSKSIIYLQMNNLRAEDTGIYYCTRDSTATHWGQGTLVTVSA VL: SIVMTQTPTFLVVSAGDRVTITCKASQSVINDVAWYQQKPGQSPKLLIFYASNRNTGVPDRFTGSGYGTDFTFTISTVQAEDLAVYFCQQDYSPPFTFGSGTKLEIKR |  |  |  |  | 0.475

Source: patent US20170101469A1 (FOURTH MILITARY MEDICAL UNIVERSITY, published 2017)
